Earlier results on 1 substance are cited in paper PMC10876095.

pKd: −log10 of the molar value. Where two headings read alike, the source gives them in different places.

In data set [1] the target is tau (Homo sapiens) (UniProt P10636). Kind of data set: SPR. For orientation: SPR reads the build-up and loss of mass on a sensor chip optically.
Data set [2] shares this target.
Data set [3] shares this target. Put plainly: SPR. This is another data set of the same source.

Sequence of UniProt P10636 (P10636 2-758): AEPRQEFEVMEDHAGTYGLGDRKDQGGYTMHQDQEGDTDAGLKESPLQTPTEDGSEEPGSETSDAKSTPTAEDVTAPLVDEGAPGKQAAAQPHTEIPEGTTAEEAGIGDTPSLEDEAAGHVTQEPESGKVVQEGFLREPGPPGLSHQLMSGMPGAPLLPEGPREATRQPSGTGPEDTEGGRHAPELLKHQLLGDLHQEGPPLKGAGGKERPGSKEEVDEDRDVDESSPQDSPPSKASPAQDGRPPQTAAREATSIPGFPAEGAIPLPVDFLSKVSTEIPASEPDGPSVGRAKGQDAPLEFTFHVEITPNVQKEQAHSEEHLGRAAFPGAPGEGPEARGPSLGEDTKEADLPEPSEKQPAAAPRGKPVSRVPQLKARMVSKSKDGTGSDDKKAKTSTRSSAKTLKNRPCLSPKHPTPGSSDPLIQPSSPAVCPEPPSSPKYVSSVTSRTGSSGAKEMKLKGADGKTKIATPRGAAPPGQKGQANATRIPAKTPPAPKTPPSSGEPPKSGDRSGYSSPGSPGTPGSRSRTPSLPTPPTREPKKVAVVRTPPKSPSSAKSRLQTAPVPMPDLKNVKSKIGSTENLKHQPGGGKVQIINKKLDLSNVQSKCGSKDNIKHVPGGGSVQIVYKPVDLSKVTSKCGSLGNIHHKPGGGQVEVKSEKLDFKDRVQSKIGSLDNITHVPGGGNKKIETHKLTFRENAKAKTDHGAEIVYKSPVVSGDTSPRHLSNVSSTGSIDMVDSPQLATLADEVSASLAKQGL

By pKd is commonly meant the negative decadic logarithm of the Kd, by convention in mol/L. Regarding 14-3-3ζ (from UniProt P63104), the pKd with tau (Homo sapiens) [1] is 6.51; with tau (Homo sapiens) [2], 6.05; with tau (Homo sapiens) [3], 7.66.
